In US9206246B2, “Heparin/heparan sulfate-dependent inhibitors of activated protein C and uses thereof in treating hemophilic disorders” (Academia Sinica, priority 2012, dated 2015):
Entries after “also recorded” stand apart in the source; their conditions may differ.

Legend:
Format in all cases: biochemical
plasmin = target: T1, plasmin (Homo sapiens, UniProt P00747); test: Selectivity profile and Ki, amidolytic activity of plasmin; conditions: for inhibition of plasmin: equimolar, plasmin 20 nM
T1 construct: thrombin, plasma kallikrein and plasmin were obtained; purchased Haematologic Technologies
Experimental: (§1) In each of these experiments, the molar ratio of protease active site to inhibitor was 1:1. The final concentrations of these proteases and their respective substrates were as follows: FXIIa (20 nM)/S-2302 (0.2 mM), FXIa (2.5 nM)/S-2366 (0.2 mM), FXa (10 nM)/S-2222 (1.3 mM), FIXa (200 nM)/Spectrozyme FIXa (1.3 mM), FVIIa (100 nM)/S-2288 (1.3 mM), thrombin (5 nM)/T-1637 (0.2 mM), kallikrein (5 nM)/S-2302 (0.2 mM), plasmin (20 nM)/S-2251 (0.2 mM), tPA (80 nM)/Spectrozyme tPA (0.2 mM), uPA (100 nM)/S-2288 (1.3 mM), APC (10 nM)/Spectrozyme PCa (0.2 mM) and trypsin (5 nM)/S-2222 (0.2 mM). Results shown are means±SD of at least three experiments.
(§2) DrKIn-I, with or without heparin, was screened for its inhibitory activity against trypsin and also against serine proteases in the coagulation cascade (FXIIa, FXIa, FXa, FIXa, FVIIa, thrombin and kallikrein) and in the fibrinolytic system (plasmin, tPA and uPA). The amidolytic activities of these proteases were determined in the presence or absence of equimolar concentrations of DrKIn-I using their respective chromogenic substrates.

[1] = system: APC in FVIII-deficient plasma; test: APTT-based APC resistance assay in FVIII-deficient plasma; conditions: 200 nM DrKIn-I, 40 nM APC, 2 μg/ml heparan sulfate
Experimental: APTT-based clotting times were measured in normal, FVIII-deficient and FIX-deficient plasma containing 2 μg/ml heparan sulfate in the presence or absence of 40 nM APC and the indicated concentrations of DrKIn-I. Results shown are means±S.D. of at least three experiments.
50 μl of normal plasma, FVIII-deficient plasma or FIX-deficient plasma supplemented with 2 μg/ml heparan sulfate (four disaccharide units long) was exposed to APC (40 nM) and varying concentrations of DrKIn-I (50-200 nM). 50 μl of activated partial thromboplastin (APTT) reagent (HYPHEN Biomed) was added and incubated for 1 minute at 37° C. Finally, clotting was initiated by adding 50 μl of 20 mM CaCl2. Coagulation times, which reflect the activities of APC, were recorded on a coagulometer (Hemostasis Analyzer KC-1; Sigma Diagnostics).

[2] = target: T2, human activated protein C (Homo sapiens, UniProt P04070); test: Inhibition of APC amidolytic activity (Spectrozyme PCa chromogenic substrate); conditions: for enhancement of APC inhibition by heparan sulfate chain: 10 μg/ml, APC and DrKIn-I 20 nM each; for Hill slope of dose-response curve / IC50: APC 10 nM
T2 construct: purchased Haematologic Technologies
Experimental: (§3) B: Dose-response curves of APC (10 nM) inhibition by DrKIn-I in the absence (◯) and presence (●) of 0.1 U/ml heparin. C: To determine the minimum concentration of heparin required for the potentiation APC inhibition, the activity of APC (20 nM) was measured after the addition of DrKIn-I (20 nM) and varying concentrations of heparin (0-1000 mU/ml). D: To assess the ability of heparan sulfate and the minimum length of heparan sulfate required to potentiate DrKIn-I-mediated APC inhibition, the amidolytic activity of APC was determined in the presence of DrKIn-I (20 nM) and different lengths of heparan sulfate chains (10 μg/ml each). E, Time course of FVa inactivation by APC (1 nM) was assessed in the absence (●) or presence (▪) of 5 nM DrKIn-I, or in the presence of 5 nM DrKIn-I supplemented with 0.1 U/ml heparin (▴), as described in “Materials and methods”. F, The effect of DrKIn-I (0-250 nM) and/or heparin (0.1 U/ml) on APC-mediated FVa inactivation was determined after 10 minutes of incubation at 37° C. with APC (5 nM). Results shown are means±SD of three experiments.
All inhibition assays were performed in 96-wells microtiter plates in 25 mM Tris-HCl (pH 7.4), 150 mM NaCl, 2.5 mM CaCl2 and 5 mg/ml BSA. For comparison between DrKIn-I and DrKIn-II, the amidolytic activity of 10 nM APC, with or without 0.1 U/ml heparin, was assayed in the presence or absence of equal molar concentrations of DrKIn-I or DrKIn-II. Immediately after the addition of APC, Spectrozyme PCa was added and the rates of p-nitroaniline release were monitored at 405 nm for 10 minutes at 37° C. For dose response curves, APC was mixed with different concentrations of DrKIn-I in the presence or absence of heparin. The final concentrations were as follows: APC (10 nM), heparin (0.1 U/ml) and DrKIn-I (0-100 nM in the presence of heparin and 0-12800 nM in the absence of heparin). Dose-response curves were fitted using GraphPad Prism (GraphPad Software). In other inhibition experiments, varying concentrations of heparin ([…]) or different lengths of heparan sulfate chains (10 μg/ml) were added to equimolar concentrations of APC and DrKIn-I (20 nM each). In all the inhibition experiments, Spectrozyme PCa was added to a final concentration of 0.2 mM. Changes in absorbance were measured using SpectraMax M2^e Microplate Reader (Molecular Devices).

APC = APC (Homo sapiens, UniProt P04070); test: APC-mediated FVa inactivation assay (residual FVa activity, prothrombin time-based); design: purchased Haematologic Technologies
Experimental: as §3
In assays involving FVa, 20 nM purified FVa was incubated at 37° C. with a mixture containing 1 nM or 5 nM APC, 20 nM protein S, 20 μM DOPC/DOPS (75:25) and 5-250 nM DrKIn-I in the presence or absence of 0.1 U/ml heparin. At specific time intervals, 5 μl aliquots were removed and mixed with 50 μl of FV-deficient plasma. The residual FVa activities were quantified in a standard prothrombin time-based assay using a calibration curved obtained by adding variable amounts of FVa to FV-deficient plasma. All concentrations given were final concentrations.

thrombin = target: T3, thrombin (Homo sapiens, UniProt P00734); test: Selectivity profile, amidolytic activity of thrombin
T3 construct: thrombin, plasma kallikrein and plasmin were obtained; purchased Haematologic Technologies
Experimental: as §1, §2

[3] = in the presence of 0.1 U/ml heparin

T2 sequence (P04070 212-450 limits assumed): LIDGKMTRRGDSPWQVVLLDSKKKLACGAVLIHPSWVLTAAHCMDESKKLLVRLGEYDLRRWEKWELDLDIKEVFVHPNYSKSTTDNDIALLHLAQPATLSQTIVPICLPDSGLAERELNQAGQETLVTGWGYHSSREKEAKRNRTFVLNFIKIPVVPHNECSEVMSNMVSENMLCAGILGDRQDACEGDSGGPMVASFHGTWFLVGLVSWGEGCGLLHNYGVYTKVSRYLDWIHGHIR
T2 sequence (P04070 43-197 limits assumed): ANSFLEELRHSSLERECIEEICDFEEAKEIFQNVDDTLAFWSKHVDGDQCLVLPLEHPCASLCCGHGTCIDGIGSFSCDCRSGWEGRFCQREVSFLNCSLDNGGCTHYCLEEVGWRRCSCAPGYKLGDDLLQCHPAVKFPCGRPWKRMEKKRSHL
Chain of APC (P04070 212-450 limits assumed): as the sequence (P04070 212-450 limits assumed) above
Chain of APC (P04070 43-197 limits assumed): as the sequence (P04070 43-197 limits assumed) above
T1 sequence (P00747 581-810 limits assumed): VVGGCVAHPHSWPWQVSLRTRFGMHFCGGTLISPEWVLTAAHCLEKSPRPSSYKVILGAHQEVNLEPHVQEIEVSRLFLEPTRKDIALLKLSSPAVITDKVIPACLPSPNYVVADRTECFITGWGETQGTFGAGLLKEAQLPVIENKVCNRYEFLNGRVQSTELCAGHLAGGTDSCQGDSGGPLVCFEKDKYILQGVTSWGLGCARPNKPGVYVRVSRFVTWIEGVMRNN
T1 sequence (P00747 97-580 limits assumed): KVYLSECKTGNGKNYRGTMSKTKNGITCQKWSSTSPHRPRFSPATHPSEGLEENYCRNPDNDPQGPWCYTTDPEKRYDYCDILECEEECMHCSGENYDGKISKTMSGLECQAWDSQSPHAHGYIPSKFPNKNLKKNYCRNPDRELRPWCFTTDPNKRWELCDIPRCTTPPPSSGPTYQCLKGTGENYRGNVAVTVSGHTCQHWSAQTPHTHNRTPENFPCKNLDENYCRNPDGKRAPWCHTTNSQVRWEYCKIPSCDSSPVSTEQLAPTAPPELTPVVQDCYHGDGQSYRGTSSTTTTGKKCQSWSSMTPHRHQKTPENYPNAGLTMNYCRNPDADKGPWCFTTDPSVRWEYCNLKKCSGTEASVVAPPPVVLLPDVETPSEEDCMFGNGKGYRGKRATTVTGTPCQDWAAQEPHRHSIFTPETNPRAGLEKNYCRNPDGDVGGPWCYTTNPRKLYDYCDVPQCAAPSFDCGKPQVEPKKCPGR

Substance: DrKIn-I (CGGNDNNFETRKKCRQTCGAPRKGRPT)
- inhibition of plasmin (plasmin; in the absence of heparin): ~20%
- inhibition of plasmin (plasmin; in the presence of heparin (0.1 U/ml)): ~70%
- Ki (plasmin; in the presence of heparin, read-out: Ki for plasmin inhibition): 1.56 ± 0.09 nM
- clotting time [1]: almost completely restored the clotting time to that observed in the absence of APC
- inhibitory activity against APC in the absence of heparin ([2]; 10 nM inhibitor, 10 nM APC, no heparin): little inhibitory activity against APC
- potentiation of APC inhibition by heparin ([2]; 0.01 U/ml heparin, APC 20 nM, DrKIn-I 20 nM): more than 70%
- APC activity ([2]; 0.1 U/ml heparin, APC 20 nM, DrKIn-I 20 nM): no APC activity was detectable
- decrease of APC activity (inhibition of APC amidolytic activity) ([2]; equimolar inhibitor and APC (10 nM each), 0.1 U/ml heparin, Spectrozyme PCa 0.2 mM): 100%
- enhancement of APC inhibition by heparan sulfate chain ([2]; heparan sulfate of 2 disaccharide units): ~25%
- enhancement of APC inhibition by heparan sulfate chain ([2]; heparan sulfate of one disaccharide unit): ~10%
- Hill slope of dose-response curve ([2]; in the absence of heparin): −0.85±0.02
- IC50 ([2]; in the absence of heparin): 88.9 ± 1 nM
- Hill slope of dose-response curve [2, 3]: −3.64±0.30
- IC50 [2, 3]: 3.5 ± 0.2 nM
- reduction of IC50 by heparin ([2]; with vs without heparin): 25 fold
- FVa protected from inactivation (APC; 5 nM DrKIn-I with 0.1 U/ml heparin, APC 1 nM, FVa 20 nM): 100%
- FVa protected from inactivation (APC; 250 nM DrKIn-I (50-fold molar excess) without heparin, APC 5 nM, 10 minutes): less than 20%
- effect on APC-mediated FVa degradation (APC; without heparin (5 nM DrKIn-I, APC 1 nM, FVa 20 nM)): relatively no effect on APC activity; also recorded: negligible
- inhibitory activity against thrombin (thrombin): no inhibitory activities
